The values below come from the supplement of paper PMC5998384.

Series [1] has as its system HeLa Kyoto. Kind of series: thermal stability score vs G1/S (z-score of summed log2 fold changes over temperatures); higher = more thermally stable than in G1/S.
The test system of series [2] is HeLa Kyoto. Kind of series: melting temperature (median over replicates), in situ; higher = more thermally stable.
The subject of series [3] is HeLa Kyoto. Briefly: solubility in G1/S (NP-40 vs SDS abundance) (log2 ratio); higher = more soluble. The conditions noted are these: cell cycle stage: G1/S.
Series [4] deals with HeLa Kyoto. Kind of series: solubility change mitosis vs G1/S (difference of NP-40 vs SDS log2 ratios) (log2 ratio difference); higher = more soluble in mitosis.
Setting [5] is: cell cycle stage: early G1 (4.5 h after nocodazole release).
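Wherever melting temperature (median over replicates), in situ is given: HeLa Kyoto cells synchronized by double thymidine or nocodazole block, proteins quantified by TMT10plex mass spectrometry, three independent biological replicates.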
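Wherever solubility change mitosis vs G1/S (difference of NP-40 vs SDS log2 ratios) is given: synchronized HeLa Kyoto cells (double thymidine block for G1/S, nocodazole release for mitosis), protein amounts in NP-40 versus SDS lysates quantified by mass spectrometry, three biological replicates.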
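Wherever solubility in G1/S (NP-40 vs SDS abundance) is given: HeLa Kyoto cells arrested at G1/S by double thymidine block, proteins quantified by TMT10plex mass spectrometry in mild NP-40 versus SDS extracts, three biological replicates.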
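Wherever thermal stability score vs G1/S (z-score of summed log2 fold changes over temperatures) is given: synchronized HeLa Kyoto cells, proteins quantified by TMT10plex mass spectrometry, three biological replicates, mitosis taken 0.5 h after nocodazole release, G1/S directly after double thymidine block.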

For “MMTSVSSDHCRGAREKPQISAAQSTQPQKQVVQATAEQMRLAQVIFDKNDSDFEAKVKQLMEVTGKNQDECIVALHDCNGDVNKAINILLEGNSDTTSWETVGCKKKNFAKENSENKENREKKSEKESSRGRGNNNRKGRGGNRGREFRGEENGIDCNQVDKPSDRGKRARGRGFGRGRGRGAGRFSTQGMGTFNPADYSDSTSTDVCGTKLVVWEAAQNGADEGTELASNTHNIAQDLSNKSSYGLKGAWKNSVEEWTTEDWTEDLSETKVFTASSAPAENHILPGQSIDLVALLQKPVPHSQASEANSFETSQQQGFGQALVFTNSQHNNQMAPGTGSSTAVNSCSPQSLSSVLGSGFGELAPPKMANITSSQILDQLKAPSLGQFTTTPSTQQNSTSHPTTTTSWDLKPPTSQSSVLSHLDFKSQPEPSPVLSQLSQRQQHQSQAVTVPPPGLESFPSQAKLRESTPGDSPSTVNKLLQLPSTTIENISVSVHQPQPKHIKLAKRRIPPASKIPASAVEMPGSADVTGLNVQFGALEFGSEPSLSEFGSAPSSENSNQIPISLYSKSLSEPLNTSLSMTSAVQNSTYTTSVITSCSLTSSSLNSASPVAMSSSYDQSSVHNRIPYQSPVSSSESAPGTIMNGHGGGRSQQTLDTPKTTGPPSALPSVSSLPSTTSCTALLPSTSQHTGDLTSSPLSQLSSSLSSHQSSLSAHAALSSSTSHTHASVESASSHQSSATFSTAATSVSSSASSGASLSSSMNTANSLCLGGTPASASSSSSRAAPLVTSGKAPPNLPQGVPPLLHNQYLVGPGGLLPAYPIYGYDELQMLQSRLPVDYYGIPFAAPTALASRDGSLANNPYPGDVTKFGRGDSASPAPATTPAQPQQSQSQTHHTAQQPFVNPALPPGYSYTGLPYYTGMPSAFQYGPTMFVPPASAKQHGVNLSTPTPPFQQASGYGQHGYSTGYDDLTQGTAAGDYSKGGYAGSSQAPNKSAGSGPGKGVSVSSSTTGLPDMTGSVYNKTQTFDKQGFHAGTPPPFSLPSVLGSTGPLASGAAPGYAPPPFLHILPAHQQPHSQLLHHHLPQDAQSGSGQRSQPSSLQPKSQASKPAYGNSPYWTN [UBAP2]”, the thermal stability score in the series on HeLa Kyoto [1] (setting [5]) is -3.11; in the series with HeLa Kyoto [1] (cell cycle stage: mitosis), -3.84. Also, the figures for the melting temperature in the series on HeLa Kyoto [2] (cell cycle stage: G1/S) and in the series on HeLa Kyoto [2] (cell cycle stage: mitosis) were 57.3 °C and 56.8 °C, respectively. Besides, in the series with HeLa Kyoto [3], the “solubility in G1/S (log2)” value was found to be 0.0134. In addition, in the series on HeLa Kyoto [4], the “solubility change mitosis (log2)” value was -0.0536.

Take “MVLLKEYRVILPVSVDEYQVGQLYSVAEASKNETGGGEGVEVLVNEPYEKDGEKGQYTHKIYHLQSKVPTFVRMLAPEGALNIHEKAWNAYPYCRTVITNEYMKEDFLIKIETWHKPDLGTQENVHKLEPEAWKHVEAVYIDIADRSQVLSKDYKAEEDPAKFKSIKTGRGPLGPNWKQELVNQKDCPYMCAYKLVTVKFKWWGLQNKVENFIHKQERRLFTNFHRQLFCWLDKWVDLTMDDIRRMEEETKRQLDEMRQKDPVKGMTADD [PITPNA]”: the values for the thermal stability score with HeLa Kyoto [1] (setting [5]) and in the series with HeLa Kyoto [1] (cell cycle stage: mitosis) were -1.26 and -1.48, respectively. In addition, the melting temperature in the series with HeLa Kyoto [2] (cell cycle stage: G1/S) came out at 54.9 °C; in the series on HeLa Kyoto [2] (cell cycle stage: mitosis), 55.5 °C. For the same sequence, in the series with HeLa Kyoto [3], the “solubility in G1/S (log2)” value is 0.15. Also, the “solubility change mitosis (log2)” value in the series on HeLa Kyoto [4] is -0.0595.

In the case of “MAAGAAEAAVAAVEEVGSAGQFEELLRLKAKSLLVVHFWAPWAPQCAQMNEVMAELAKELPQVSFVKLEAEGVPEVSEKYEISSVPTFLFFKNSQKIDRLDGAHAPELTKKVQRHASSGSFLPSANEHLKEDLNLRLKKLTHAAPCMLFMKGTPQEPRCGFSKQMVEILHKHNIQFSSFDIFSDEEVRQGLKAYSSWPTYPQLYVSGELIGGLDIIKELEASEELDTICPKAPKLEERLKVLTNKASVMLFMKGNKQEAKCGFSKQILEILNSTGVEYETFDILEDEEVRQGLKAYSNWPTYPQLYVKGELVGGLDIVKELKENGELLPILRGEN [GLRX3]”, the thermal stability score was 2.12 with HeLa Kyoto [1] (setting [5]) and 1.6 in the series on HeLa Kyoto [1] (cell cycle stage: mitosis). The results for the melting temperature in the series on HeLa Kyoto [2] (cell cycle stage: G1/S) and with HeLa Kyoto [2] (cell cycle stage: mitosis) were 49.6 °C and 49.9 °C, respectively. For the same sequence, in the series on HeLa Kyoto [3], the “solubility in G1/S (log2)” value amounted to 0.354. Moreover, the “solubility change mitosis (log2)” value in the series on HeLa Kyoto [4] was -0.111.

With “MEGNRDEAEKCVEIAREALNAGNREKAQRFLQKAEKLYPLPSARALLEIIMKNGSTAGNSPHCRKPSGSGDQSKPNCTKDSTSGSGEGGKGYTKDQVDGVLSINKCKNYYEVLGVTKDAGDEDLKKAYRKLALKFHPDKNHAPGATDAFKKIGNAYAVLSNPEKRKQYDLTGNEEQACNHQNNGRFNFHRGCEADITPEDLFNIFFGGGFPSGSVHSFSNGRAGYSQQHQHRHSGHEREEERGDGGFSVFIQLMPIIVLILVSLLSQLMVSNPPYSLYPRSGTGQTIKMQTENLGVVYYVNKDFKNEYKGMLLQKVEKSVEEDYVTNIRNNCWKERQQKTDMQYAAKVYRDDRLRRKADALSMDNCKELERLTSLYKGG [DNAJB14]”, the results for the thermal stability score with HeLa Kyoto [1] (setting [5]) and in the series with HeLa Kyoto [1] (cell cycle stage: mitosis) were -1.51 and 0.131, respectively. The melting temperature in the series with HeLa Kyoto [2] (cell cycle stage: G1/S) came to 51.3 °C; in the series on HeLa Kyoto [2] (cell cycle stage: mitosis) it was 51.9 °C. The “solubility in G1/S (log2)” value with HeLa Kyoto [3] came to 0.511. The “solubility change mitosis (log2)” value in the series on HeLa Kyoto [4] is -0.15.

Regarding “MVPLVAVVSGPRAQLFACLLRLGTQQVGPLQLHTGASHAARNHYEVLVLGGGSGGITMAARMKRKVGAENVAIVEPSERHFYQPIWTLVGAGAKQLSSSGRPTASVIPSGVEWIKARVTELNPDKNCIHTDDDEKISYRYLIIALGIQLDYEKIKGLPEGFAHPKIGSNYSVKTVEKTWKALQDFKEGNAIFTFPNTPVKCAGAPQKIMYLSEAYFRKTGKRSKANIIFNTSLGAIFGVKKYADALQEIIQERNLTVNYKKNLIEVRADKQEAVFENLDKPGETQVISYEMLHVTPPMSPPDVLKTSPVADAAGWVDVDKETLQHRRYPNVFGIGDCTNLPTSKTAAAVAAQSGILDRTISVIMKNQTPTKKYDGYTSCPLVTGYNRVILAEFDYKAEPLETFPFDQSKERLSMYLMKADLMPFLYWNMMLRGYWGGPAFLRKLFHLGMS [SQRDL]”, the thermal stability score with HeLa Kyoto [1] (setting [5]) was 0.51; with HeLa Kyoto [1] (cell cycle stage: mitosis), -4.29. The melting temperature in the series on HeLa Kyoto [2] (cell cycle stage: G1/S) and in the series with HeLa Kyoto [2] (cell cycle stage: mitosis) was 54.3 °C throughout. Further, the “solubility in G1/S (log2)” value in the series with HeLa Kyoto [3] worked out at 0.148. For the same sequence, in the series with HeLa Kyoto [4], the “solubility change mitosis (log2)” value was -0.0579.
